This is an account of results in PMC3338918.

Assay [1] concerns the target T1, human PlGF-2 (human) (UniProt P49763).
T1 sequence: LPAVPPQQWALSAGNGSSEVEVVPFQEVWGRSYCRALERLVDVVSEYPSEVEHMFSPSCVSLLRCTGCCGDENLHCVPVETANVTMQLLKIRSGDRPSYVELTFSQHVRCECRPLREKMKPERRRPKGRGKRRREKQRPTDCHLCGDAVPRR

In assay [2] the target is human VEGF-A121 (human).
Assay [3] concerns the target human VEGF-A165 (human).
Assay [4] addresses T2, murine PlGF-2 (mouse) (UniProt P49764).
T2 sequence: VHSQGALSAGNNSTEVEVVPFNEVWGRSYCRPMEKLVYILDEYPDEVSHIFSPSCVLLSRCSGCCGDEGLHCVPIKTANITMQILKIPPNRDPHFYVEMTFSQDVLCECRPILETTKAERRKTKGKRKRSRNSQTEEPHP

Assay [5] addresses human VEGF-A165 (human). This is another data set of the same source.
Assay [6] concerns the target T1, human PlGF-2 (human). The source holds these as a separate data set.
Assay [7] deals with T2, murine PlGF-2 (mouse). This is another data set of the same source.
In assay [8] the target is human VEGFR1-hFc (human) (UniProt P17948).
Chain of human VEGFR1-hFc (human) (P17948 27-758): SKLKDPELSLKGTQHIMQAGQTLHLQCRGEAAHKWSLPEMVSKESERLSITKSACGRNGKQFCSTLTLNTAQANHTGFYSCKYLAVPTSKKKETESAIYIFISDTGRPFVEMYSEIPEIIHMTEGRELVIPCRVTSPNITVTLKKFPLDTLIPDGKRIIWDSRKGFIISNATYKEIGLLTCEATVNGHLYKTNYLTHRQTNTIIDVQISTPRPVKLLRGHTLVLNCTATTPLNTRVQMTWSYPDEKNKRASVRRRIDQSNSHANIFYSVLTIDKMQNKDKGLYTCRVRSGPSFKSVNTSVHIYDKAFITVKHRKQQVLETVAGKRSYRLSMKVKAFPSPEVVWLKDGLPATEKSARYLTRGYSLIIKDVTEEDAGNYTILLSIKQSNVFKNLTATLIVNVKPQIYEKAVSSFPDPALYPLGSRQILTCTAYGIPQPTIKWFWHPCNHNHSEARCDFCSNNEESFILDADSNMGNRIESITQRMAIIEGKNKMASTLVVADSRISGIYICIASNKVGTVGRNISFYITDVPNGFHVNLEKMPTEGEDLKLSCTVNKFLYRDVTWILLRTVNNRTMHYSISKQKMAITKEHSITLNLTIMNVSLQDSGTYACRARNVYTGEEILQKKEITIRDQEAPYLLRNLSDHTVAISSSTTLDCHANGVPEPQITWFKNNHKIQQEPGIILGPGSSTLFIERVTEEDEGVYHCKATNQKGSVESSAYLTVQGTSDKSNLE
For assay [9], the target named is VEGF Trap (aflibercept) (human). As to the kind of experiment: KinExA solution equilibrium assay; KinExA 3000, room temperature (25°C); VEGF Trap (1–50 pM) equilibrated 10–96 h with varying ligand; unbound inhibitor captured on VEGF-A165-coupled Azlactone beads and detected with Cy5 anti-human IgG; one-site homogeneous binding model. (In general: Kinetic exclusion samples the free partner from a solution-phase mixture.)

Assay [10] has the same target. As to the kind of experiment: SPR; Biacore 3000, CM5 chip, 25°C, HBS-T (10 mM Hepes, 150 mM NaCl, 3.4 mM EDTA, 0.05% polysorbate 20, pH 7.4); VEGF Trap or receptor-Fc captured at low density on amine-coupled Protein A, ligands injected (1.0–0.062 nM VEGF-A, 2.5–0.156 nM VEGF-B(10-108), 5.0–0.078 nM PlGF); kd of VEGF-A ligands by the 'fixed kd' procedure on a Biacore 2000 (~2–3 h); KD = kd/ka.

The target in assay [11] is human VEGFR1-hFc (human) (UniProt P17948). The assay is described as above.
Assay [12] concerns the target human VEGFR2-hFc (human) (UniProt P35968). The assay is described as above.

Chain of human VEGFR2-hFc (human) (P35968 20-764): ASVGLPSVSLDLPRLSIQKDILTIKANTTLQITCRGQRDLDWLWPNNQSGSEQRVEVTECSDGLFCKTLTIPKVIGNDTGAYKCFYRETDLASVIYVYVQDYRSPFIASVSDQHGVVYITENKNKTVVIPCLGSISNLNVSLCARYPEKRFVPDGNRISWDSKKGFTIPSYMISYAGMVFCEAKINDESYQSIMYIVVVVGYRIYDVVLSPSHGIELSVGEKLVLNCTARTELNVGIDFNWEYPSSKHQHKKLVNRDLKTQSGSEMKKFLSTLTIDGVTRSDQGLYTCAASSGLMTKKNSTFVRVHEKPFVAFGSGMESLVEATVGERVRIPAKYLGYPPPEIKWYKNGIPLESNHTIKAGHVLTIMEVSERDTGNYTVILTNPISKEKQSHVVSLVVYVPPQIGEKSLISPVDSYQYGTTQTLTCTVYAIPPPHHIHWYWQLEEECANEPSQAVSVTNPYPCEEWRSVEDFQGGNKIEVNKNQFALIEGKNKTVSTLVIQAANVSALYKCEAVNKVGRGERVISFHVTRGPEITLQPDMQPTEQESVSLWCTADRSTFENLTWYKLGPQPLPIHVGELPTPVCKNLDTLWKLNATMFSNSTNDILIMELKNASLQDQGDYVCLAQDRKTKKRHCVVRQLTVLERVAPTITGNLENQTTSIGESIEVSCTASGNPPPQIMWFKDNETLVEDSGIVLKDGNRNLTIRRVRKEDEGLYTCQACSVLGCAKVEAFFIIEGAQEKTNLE
Chain of VEGF Trap (aflibercept) (Fc fusion) (chain): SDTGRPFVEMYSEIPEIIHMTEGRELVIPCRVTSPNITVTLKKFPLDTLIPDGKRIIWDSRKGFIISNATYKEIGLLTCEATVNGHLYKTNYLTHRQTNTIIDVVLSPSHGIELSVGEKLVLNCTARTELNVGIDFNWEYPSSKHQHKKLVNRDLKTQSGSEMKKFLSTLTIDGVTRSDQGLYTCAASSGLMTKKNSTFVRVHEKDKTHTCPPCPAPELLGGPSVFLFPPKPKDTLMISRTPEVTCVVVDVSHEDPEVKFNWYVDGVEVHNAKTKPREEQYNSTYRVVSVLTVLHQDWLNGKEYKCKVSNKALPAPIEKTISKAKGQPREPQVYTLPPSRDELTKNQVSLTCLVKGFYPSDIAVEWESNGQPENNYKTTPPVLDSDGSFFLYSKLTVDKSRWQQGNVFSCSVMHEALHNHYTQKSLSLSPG

Turning to VEGF Trap (aflibercept) (Fc fusion), the IC50 of blocking luciferase activity induced by 40 pM hPlGF-2 in the HEK293/VEGFR1 reporter cell line (blocks hPlGF-2 with VEGFR1) in [1] is 2890 pM. The IC50 of blocking luciferase activity induced by 20 pM hVEGF-A121 in the HEK293/VEGFR1 reporter cell line (blocks VEGF-A121 with VEGFR1) in [2] was determined as 15 pM. For the same substance, the IC50 of blocking luciferase activity induced by 20 pM hVEGF-A165 in the HEK293/VEGFR1 reporter cell line (blocks VEGF-A165 with VEGFR1) in assay [3] was determined as 16 pM. The substance also registered an IC50 of blocking luciferase activity induced by 20 pM mPlGF-2 in the HEK293/VEGFR1 reporter cell line (blocks mPlGF-2 with VEGFR1) in [4] of 104 pM. In [5], the reduction of HUVEC migration induced by 130 pM VEGF-A165 (modified Boyden chamber; inhibitor 0.013–13 nM), at a 1:1 molar ratio of VEGF Trap and VEGF-A165 was 90%. In [6], this substance showed a block of HUVEC migration induced by human PlGF-2 (7.1 nM) by a 100-fold excess of VEGF Trap (modified Boyden chamber) of 80%. Further, the block of HUVEC migration induced by mouse PlGF-2 (3.5 nM) by a 100-fold excess of VEGF Trap (modified Boyden chamber) in assay [7] stood at 80%.
As usually defined, the Kd is the free concentration of one partner at which half of the binding sites on the other are occupied at equilibrium, for simple one-to-one binding. The term koff denotes a measure of how fast the partners let go of each other. Low values mean a long-lived complex, high ones a short-lived complex. The term kon denotes the rate constant with which the complex forms. human VEGF-A121 (ligand): the EC50 of luciferase activation in HEK293/VEGFR1 cells (dose response, 0.022 pM to 4.0 nM) in assay [8] was found to be 13 pM. Moreover, the Kd in assay [9] is 0.18 pM. In assay [10], the Kd amounted to 0.36 pM, the koff turned out to be 1.35e-05 s⁻¹ and the kon was determined as 3.75e+07 M⁻¹ s⁻¹.
Regarding human VEGF-A165 (ligand), the EC50 of luciferase activation in HEK293/VEGFR1 cells (dose response, 0.022 pM to 4.0 nM) in [8] came to 17 pM. The Kd is 0.66 pM in assay [9], 0.49 pM in [10], 9.33 pM in [11] and 88.8 pM in assay [12]. For the same substance, the koff came out at 2.01e-05 s⁻¹ in assay [10], 0.00028 s⁻¹ in assay [11] and 0.00135 s⁻¹ in assay [12]. The kon in assay [10] was found to be 4.1e+07 M⁻¹ s⁻¹; in assay [11], 3e+07 M⁻¹ s⁻¹; in assay [12], 1.52e+07 M⁻¹ s⁻¹.
“human VEGF-B(10-108) (domain or fragment)” registered a Kd in assay [9] of 17.5 pM. In assay [10], this substance gave a Kd of 1.92 pM, a koff of 6.74e-05 s⁻¹ and a kon of 3.52e+07 M⁻¹ s⁻¹.
